Results as given in patent US20140050662.

Tested on: PSA activatable agent A10 (compound A10)

enzymatically active prostate specific antigen
fluorescence activation (kinetic fluorescence readings, cleavage of the quenched peptide): Test agent (compound A10-0.5 µM final concentration of agent) was activated in the presence of active PSA (0.1 µM final concentration of activated enzyme)
